Data set [1] concerns the target ZFL1-ND1-DDD (Artificial). As to the kind of experiment: cell_activity; SSA, ZFL1-6bp-ZFA36, paired with ND1-RRR; about 80% with FokI-RRR; alone almost inactive. The conditions noted are these: R493D/N502D. As for the experimental part: (§1) Genes to Cells 15: 875-885). To a 96-well multiwell plate (Iwaki) treated with polylysine coat, 25 μL of serum-free D-MEM culture solution was added, and 6 μL of plasmid solution was mixed. To this, 25.7 μL of a solution containing 0.7 μL of Lipofectamine LTX (Life Technologies) per 25 μL of serum-free D-MEM culture solution was added, and the mixture was allowed to stand at room temperature for 30 minutes. During this period, HEK293T cells were dissociated from a 100 mm tissue culture dish (Iwaki) by trypsin treatment, centrifuged at 1000 rpm for 3 minutes, the supernatant was removed, and the cells were suspended again in 5 mL of the culture solution. A 10 μL cell suspension was dispensed, and the number of cells was counted. […]
(§2) Furthermore, in order to functionally convert the amino acids of the novel nuclease domains corresponding to the amino acids (D483, R487, and N496) involved in the heterodimerization of FokI-ND to the DDD-type, each pSTL-hPGRN_ZFL1-ND was used as a template and a primer pair was used to perform PCR by PrimeSTAR Max. […] Note that the amount of each ZFN plasmid in 7.2 μL of the plasmid solution used in the SSA reporter assay was changed to 120 ng for the target half-site L and 120 ng for the target half-site R. In addition, nuclease activity was measured by the Cel-I assay in the same manner as described in Example 3.

The target in data set [2] is ZFA36-ND1-RRR (Artificial). The data set is described as follows: cell_activity; SSA, ZFL1-6bp-ZFA36, paired with ND1-DDD; about 60% with FokI-DDD; alone almost inactive. The settings on record: D489R/N543R. The method, then: as §1, §2
Data set [3] concerns the target ZFA36-ND1 (Artificial (ND1 from Bacillus sp. …)). As to the kind of experiment: cell_activity; Cel-I assay CHO-K1, stated for the sites overall. The conditions noted are these: tags: TGAAARA linker; residues from the E. coli expression version (His/NLS); chain copies: 2 inferred.

From US20210332339, “NOVEL NUCLEASE DOMAIN AND USE THEREOF” (HIROSHIMA UNIVERSITY, published 2021) come the findings set out here.

Chain of ZFL1-ND1-DDD (Artificial) (chain, as listed by the source): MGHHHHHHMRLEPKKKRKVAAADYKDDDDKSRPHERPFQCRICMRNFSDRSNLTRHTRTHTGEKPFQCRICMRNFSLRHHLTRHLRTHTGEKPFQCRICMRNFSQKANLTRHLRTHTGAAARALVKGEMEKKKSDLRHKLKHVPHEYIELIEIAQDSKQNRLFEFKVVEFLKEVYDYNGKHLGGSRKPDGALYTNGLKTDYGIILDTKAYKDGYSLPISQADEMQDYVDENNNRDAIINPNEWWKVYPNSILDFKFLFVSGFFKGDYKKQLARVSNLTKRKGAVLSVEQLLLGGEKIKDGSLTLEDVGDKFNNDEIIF
Chain of ZFA36-ND1-RRR (Artificial) (chain, as listed by the source): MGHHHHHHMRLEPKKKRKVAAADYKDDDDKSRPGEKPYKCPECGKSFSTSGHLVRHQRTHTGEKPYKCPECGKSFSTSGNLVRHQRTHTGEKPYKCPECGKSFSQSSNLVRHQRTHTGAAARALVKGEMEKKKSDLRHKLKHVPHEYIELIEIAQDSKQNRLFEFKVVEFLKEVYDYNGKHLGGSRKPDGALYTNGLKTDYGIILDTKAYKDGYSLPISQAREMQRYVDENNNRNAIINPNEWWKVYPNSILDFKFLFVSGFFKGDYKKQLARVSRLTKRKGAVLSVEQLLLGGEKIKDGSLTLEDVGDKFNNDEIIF

B1: ZFL1 half-site (dsDNA)
DNA 1: GAAGGTGAC
DNA 2: GTCACCTTC
With B1, the binding signal in data set [1] is approximately 1.6 fold.

B2: ZFA36 half-site (dsDNA)
DNA 1: GAAGATGGT
DNA 2: ACCATCTTC
With B2, the binding signal in data set [2] is approximately 1.6 fold.

B3: ZFA36-ZFA36 CHO-K1 3rd site (dsDNA)
DNA 1: ACCATCTTCCTTGATGAAGATGCC
DNA 2: GGCATCTTCATCAAGGAAGATGGT
For B3, in data set [3], the binding signal was ~1.5 fold of FokI-ND.
